From patent publication US20100278834A1

B1: FLD129 (antibody, V domains shown)
VH: EVQLVESGGGLVQPGRSLRLSCAASGFTFSDFWMSWVRQAPGKGLEWVANIDQDGNERFYADSVKGRFTISRDNAKNSLYLQMTSLRADDTAVYYCARDGREGYFYGSGSFYNLKGLNWGQGTLLTVSS
VL: QSVLTQPPSVSAAPGQRVTISCSGTSSNIGKNYVSWYQQLPGAAPKLLIYDNDKRPSGIPDRFSGSKSGTSATLGITGLQTGDEADYYCGTWDSSLSVGMFGGGTRLTVL
B2: FLA5.10 (antibody, V domains shown)
VH: QVQLVQSGAEVKEPGSAMKVSCKASGGTFSSDAFCWVRQAPGRGLEWMGGIIPVFQTANYGPNFQGRVTISADVYTTTLYLELSGLTSEDTAVYFCARSGDGYNYYFPLWGQGTLVTVSS
VL: DIQMTQSPSTLSGSVGDRVTITCRASQNIGPWLAWYQQESGKAPKLLISRASILESGVPSRFSGTGTGTEFTLTISSLQPDDFATYYCQHYNAYWGTFGQGTKVEIN
B3: FLD122 (antibody, V domains shown)
VH: QFQLVQSGPEVKKPGTSVKVSCKASGYTSTTYGISWVRQVPGQGLEWMGWINPYNGNPHYGQKFQGRVTLTRDTSTNTAYLEILSLRSDDTAVYYCARDGWGQQLVPYYFDYWGQGTLVTVSS
VL: DIVMTQSPLSLPVTPGEPASISCRASQSLLHSNGYNYLDWYLQKPGQSPQLLIQLGSTRASGVPDRFSGSGSGTDFTLEISRVEAEDVGVYYCMQALQLPLAFGQGTRLEIK
B4: FLD127 (antibody, V domains shown)
VH: QVQLVESGGGVVQPGRSLRLSCAASGFTFSSYGMHWVRQAPGKGLEWVAVIWYDGDNKYYGDSVKGRFTISRDNSKNTLFLQMNSLRAEDTAVYYCAKDTADHGDYVDLGFFDAWGQGTLVTVSS
VL: DIQMTQSPSSVSASVGDRVTITCRASQDVSTWLAWYQLKPGKAPKLLIYAASSLQSGVPSRFSGSGSGTDFTLTVSSLQPEDFATYYCQQANSFPFTFGPGTKVDIK
B5: FLD84 (antibody, V domains shown)
VH: QVQLQESGPGLVKPSETLSLICAVSGASISSSYWSWIRQPPGKGLEWIGYIYYSGVTKYNPSLKSRVTLSVDTSKNHFSLKLSYVTAADTAVYYCARNLPDIAVVTAVQDATPVWFDPWGPGTLVSVSS
VL: DIQLTQSPSSLSASVGDRVTITCRASQGIITYLNWYQQKPGKAPKLLIYATYSLQNGVPSRFSGSGSGTDFTLTISSLQPEDFATYYCQQSYSSLMFTFGQGTKLDIK
B6: FLA3.14 (antibody, V domains shown)
VH: EVQLVQSGAEVKKPGESLKISCQASGYSFTSRWIGWVRQMPGKGLEWVGFIYPSDSDVRYSPSFRGQVTISADKSISTAYLQWSSLKASDTAMYFCARLGGNKDYGDYLWYFDLWGRGALVTVSS
VL: EIVMTQSPDTLSVSPGERATLSCRASQSVNRRLAWYQQKPGQAPRLLIHDASTRATGIPARFSGSGSGTEFTLTISSLQSEDFAVYYCQQYDNWLSFGQGTRLEIK
B7: FLD93 (antibody, V domains shown)
VH: WWQLVQSGAEVKKPGSSVKVSCKASGGTFSSYDISWVRQAPGQGLEWMGGIIPIYGTANYAQKFQGRVTITADESTSTAYMELSSLRSEDTAVYYCARAGGDSSGYYGALGRFFQHWGQGTLVTVSS
VL: VIWMTQSPSLLSASTGDRVTISCRMSQGISSYLAWYQQKPGKAPELLIHTAYTLKSGVPSRFSGSGSGKDFTLTISGLQSEDFATYYCQQYYSFPYTFGQGTKVEIK
B8: FLD20.19 (antibody, V domains shown)
VH: QVQLVQSGAEVKKPGSSVTVSCKASGGTFSNYGISWVRQAPGQGLDWMGGIIPLFGTANYAQKFQGRVTITADESTSSSNMELSSLRSEDTAVYYCARDVHNYDFLTGYPLHLYGMDVWGQGTTVTVSS
VL: DIQMTQSPSSLSASVGDRVTITCRASQSISTYLNWYQQKPGIPPKLLINVASSLQSGVPSRFSGSGSGTDFTLTISSLQPEDFASYYCQQTYSSPPTFGQGTKVEIK
B9: FLD132 (antibody, V domains shown)
VH: EVQLVQSGAELKMPGESLKISCKASGYTFTNYWIGWVRQTPGKGLEWMGIIFPPDSQTSYSPSFQGQVTFSVDNSISVAYIQWSSLKASDTAIYYCARSGIFDWSAPLVEAFDIWGQGTVVTVSS
VL: DIQLTQSPSFLSASVGDGVTITCRASQDIYIYLAWYQQKPGKAPKLLIYAASTLQGGVPSRFSGSGSGTEFTLTINNLQPEDFATYFCQQLNGYPLTFGGGTKVEIK

What was measured:
[1] = target: hemagglutinin of H5N1 clade 1 strain A/Hong Kong/213/03 (influenza A virus A/Hong Kong/213/03 (H5N1)); test: cell-based or functional assay
[2] = target: hemagglutinin of A/Indonesia/5/05 (H5N1, clade 2) (influenza A virus A/Indonesia/5/05 (H5N1)); test: cell-based or functional assay
[3] = target: hemagglutinin of H5N1 clade 2.3 strain Anhui/1/05 (influenza A virus Anhui/1/05 (H5N1)); test: cell-based or functional assay
[4] = target: hemagglutinin of H5N1 clade 2.2 strain WS/Mong/244/05 (influenza A virus WS/Mong/244/05 (H5N1)); test: cell-based or functional assay
[5] = target: hemagglutinin of A/Vietnam/1203/04 (H5N1) (influenza A virus A/Vietnam/1203/04 (H5N1)); test: cell-based or functional assay
[6] = target: hemagglutinin of H5N1 clade 1 strain HK/491/97 (influenza A virus HK/491/97 (H5N1)); test: cell-based or functional assay
[7] = target: hemagglutinin of H5N1 clade 2.2 strain TY/TY/1/05 (influenza A virus TY/TY/1/05 (H5N1)); test: cell-based or functional assay
[8] = target: hemagglutinin of H5N1 clade 1 strain VN/1194.04 (influenza A virus VN/1194.04 (H5N1)); test: cell-based or functional assay
[9] = target: H5 hemagglutinin (HA) of H5N1 influenza A virus, strain not stated (influenza A virus (H5N1), strain not stated); test: cross-inhibition of binding to HA; competitor: FLD20.19
[10] = target: H5 hemagglutinin (HA) of H5N1 influenza A virus, strain not stated (influenza A virus (H5N1), strain not stated); test: cross-inhibition of binding to HA; competitor: FLA3.14
[11] = target: H5 hemagglutinin (HA) of H5N1 influenza A virus, strain not stated (influenza A virus (H5N1), strain not stated); test: cross-inhibition of binding to HA; competitor: FLD194

Binder	IC50, neutralisation of retroviral pseudotypes [1] [µg/mL]	IC50, neutralisation of retroviral pseudotypes [2] [µg/mL]	Reciprocal neutralising titre of culture supernatant (reciprocal titre) [2]	IC50, neutralisation of retroviral pseudotypes [3] [µg/mL]	IC50, neutralisation of retroviral pseudotypes [4] [µg/mL]	IC50, neutralisation of retroviral pseudotypes [5] [µg/mL]	Reciprocal neutralising titre of culture supernatant (reciprocal titre) [5]	Reciprocal neutralising titre of culture supernatant (reciprocal titre) [6]	IC50, neutralisation of retroviral pseudotypes [7] [µg/mL]	IC50, neutralisation of retroviral pseudotypes [8] [µg/mL]	Inhibition of binding (%) [9] [%]	Inhibition of binding (%) [10] [%]	Inhibition of binding (%) [11] [%]
B1	0.0005	0.678	< 8	0.016	0.003	0.0017	323	1450	0.006	0.0012	100	0	100
B2	0.0025	–	–	–	–	0.024	–	–	–	0.026	100	0	100
B3	0.002	0.004	362	0.019	0.006	0.005	40	161	0.008	0.006	100	65	100
B4	0.75	–	< 8	–	–	0.013	81	102	–	0.019	100	0	0
B5	0.014	0.03	102	0.118	0.03	0.042	16	40	0.032	0.017	100	0	0
B6	0.033	0.012	–	0.172	0.067	0.065	–	–	0.076	0.086	0	100	100
B7	0.011	0.059	406	–	0.011	0.048	40	20	0.013	0.022	100	0	0
B8	0.01	0.077	813	0.104	0.004	0.016	181	181	0.01	0.013	100	0	0
B9	0.0005	–	< 8	1.8	0.001	0.001	1024	2048	0.001	0.0016	0	0	52
